Experimental data reported in US20120316071A1 (published 2012).

Key:
[1] = molecular target: T1, Recombinant Human DLL4 (R&D Systems Cat#1506-D4/CF) (human, UniProt Q9NR61 27-524); assay: affinity quoted with the Multispot ECL titration; method of the number not stated there
T1 construct: bought recombinant protein; also called rHuman DLL4; delta-like protein 4

[2] = molecular target: T1, Recombinant Human DLL4 (R&D Systems …); assay: SPR
[3] = molecular target: T2, rHuman P-Cadherin/Fc Chimera, CF (R&D Systems Cat#861-PC) (human, UniProt P22223 108-654); assay: ECL multispot binding assay (MSD), antigen spotted on plate, 10 nM Fab
T2 construct: Bought recombinant protein; Fc part of the bought chimera not given

[4] = molecular target: T3, rHuman CD44/Fc Chimera, CF (R&D Systems Cat#3660-CD) (human, UniProt P16070 21-220); assay: as above
T3 construct: Bought recombinant protein; Fc part of the bought chimera not given

[5] = molecular target: T4, rHuman IGF-1 sR, CF (R&D Systems Cat#391-GR) (human, UniProt P08069 31-932); assay: as above
T4 construct: also called insulin-like growth factor-1 soluble receptor

[6] = molecular target: T5, rHuman HGF R/c-MET/Fc Chimera, CF (R&D Systems Cat#358-MT/CF) (human, UniProt P08581 25-932); assay: as above
T5 construct: Bought recombinant protein; also called HGF R/Fc; hepatocyte growth factor receptor; Fc part of the bought chimera not given

[7] = molecular target: T6, rHuman ErbB2/Fc Chimera, CF (R&D Systems Cat#1129-ER) (human, UniProt P04626 23-652); assay: as above
T6 construct: Bought recombinant protein; also called human epidermal growth factor 2 receptor; Fc part of the bought chimera not given

[8] = molecular target: T7, rHuman EGF R/Fc Chimera, CF (R&D Systems Cat#344-ER) (human, UniProt P00533 25-645); assay: as above
T7 construct: Bought recombinant protein; also called epidermal growth factor receptor; Fc part of the bought chimera not given

[9] = molecular target: T8, rHuman Erythropoietin R/Fc Chimera, CF (R&D Systems Cat#963-ER) (human, UniProt P19235 25-250); assay: as above
T8 construct: Bought recombinant protein; also called EPO R; EPO R/Fc; Fc part of the bought chimera not given
T8 sequence (looked up): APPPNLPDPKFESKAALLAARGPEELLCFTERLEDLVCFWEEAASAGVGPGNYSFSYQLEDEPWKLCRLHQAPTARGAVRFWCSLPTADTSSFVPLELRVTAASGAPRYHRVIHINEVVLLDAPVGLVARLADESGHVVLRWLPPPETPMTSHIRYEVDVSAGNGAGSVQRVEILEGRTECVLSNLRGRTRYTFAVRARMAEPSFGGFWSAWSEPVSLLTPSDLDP

[10] = molecular target: T9, rHuman Notch-1/Fc Chimera, CF (R&D Systems Cat#3647-TK) (human, UniProt P46531 19-526); assay: as above
T9 construct: Bought recombinant protein; Fc part of the bought chimera not given

[11] = molecular target: T10, Recombinant Human DLL4 (R&D Systems Cat#1506-D4/CF) (human, UniProt Q9NR61 27-524); assay: as above
T10 construct: Bought recombinant protein; also called delta-like protein 4; rHuman DLL4

[12] = molecular target: T11, Recombinant Human DLL4 (R&D Systems Cat#1506-D4/CF) (human, UniProt Q9NR61 27-524); assay: ECL Multispot (MSD), antigen spotted, Fab 50.00 (column head 'Fab [µM]'); blank 223
T11 construct: Bought recombinant protein; also called delta-like protein 4; rHuman DLL4

[13] = molecular target: T12, rHuman P-Cadherin/Fc Chimera, CF (R&D Systems Cat#861-PC) (human, UniProt P22223 108-654); assay: as above
T12 construct: Bought Fc chimera; Fc part of the bought chimera not given

[14] = molecular target: T13, rHuman IGF-1 sR, CF (R&D Systems Cat#391-GR) (human, UniProt P08069 31-932); assay: as above
T13 construct: Bought soluble receptor; also called insulin-like growth factor-1 soluble receptor

[15] = molecular target: T14, rHuman HGF R/c-MET/Fc Chimera, CF (R&D Systems Cat#358-MT/CF) (human, UniProt P08581 25-932); assay: as above
T14 construct: Bought Fc chimera; also called HGF R/Fc; hepatocyte growth factor receptor; Fc part of the bought chimera not given

[16] = molecular target: T15, rHuman ErbB2/Fc Chimera, CF (R&D Systems Cat#1129-ER) (human, UniProt P04626 23-652); assay: as above
T15 construct: Bought Fc chimera; also called human epidermal growth factor 2 receptor; Fc part of the bought chimera not given

[17] = molecular target: T11, Recombinant Human DLL4 (R&D Systems …); assay: ELISA, DLL4 coated, 100 nM Fab, absorbance at 450 nm minus noise
[18] = molecular target: T11, Recombinant Human DLL4 (R&D Systems …); assay: ECL Multispot (MSD), antigen spotted, Fab 0.50 (column head 'Fab [µM]'); blank 206
[19] = molecular target: T12, rHuman P-Cadherin/Fc Chimera, CF (R&D …); assay: as above
[20] = molecular target: T13, rHuman IGF-1 sR, CF (R&D Systems …); assay: as above
[21] = molecular target: T14, rHuman HGF R/c-MET/Fc Chimera, CF (R&D …); assay: as above
[22] = molecular target: T15, rHuman ErbB2/Fc Chimera, CF (R&D …); assay: as above
[23] = molecular target: T11, Recombinant Human DLL4 (R&D Systems …); assay: ECL Multispot (MSD), antigen spotted, Fab 500.00 (column head 'Fab [µM]'); blank 495
[24] = molecular target: T12, rHuman P-Cadherin/Fc Chimera, CF (R&D …); assay: as above
[25] = molecular target: T13, rHuman IGF-1 sR, CF (R&D Systems …); assay: as above
[26] = molecular target: T14, rHuman HGF R/c-MET/Fc Chimera, CF (R&D …); assay: as above
[27] = molecular target: T15, rHuman ErbB2/Fc Chimera, CF (R&D …); assay: as above
[28] = molecular target: T11, Recombinant Human DLL4 (R&D Systems …); assay: ECL Multispot (MSD), antigen spotted, Fab 5.00 (column head 'Fab [µM]'); blank 268
[29] = molecular target: T12, rHuman P-Cadherin/Fc Chimera, CF (R&D …); assay: as above
[30] = molecular target: T13, rHuman IGF-1 sR, CF (R&D Systems …); assay: as above
[31] = molecular target: T14, rHuman HGF R/c-MET/Fc Chimera, CF (R&D …); assay: as above
[32] = molecular target: T15, rHuman ErbB2/Fc Chimera, CF (R&D …); assay: as above
[33] = molecular target: T11, Recombinant Human DLL4 (R&D Systems …); assay: ECL Multispot (MSD), DLL4 spotted, 10 nM Fab

B1: Fab VH1-46_IGHD6-6*01_IGHJ1*01 S102A/S103P/S104F/H111F & L6_IGKJ1*01 (Fab, V domains shown)
VH: QVQLVQSGAEVKKPGASVKVSCKASGYTFTSYYMHWVRQAPGQGLEWMGIINPSGGSTSYAQKFQGRVTMTRDTSTSTVYMELSSLRSEDTAVYYCAREEYAPFSAEYFQFWGQGTLVTVSS
VL: not shown
notes: Fab; also called H:APFF & L:wt; APFF mutant
apparent Kd (pooled screen) [1]: 70 nM
fold affinity against the parent Fab [2]: 10 fold

B2: Fab VH1-46_IGHD6-6*01_IGHJ1*01 S102A/S103P/S104F/H111F S59A & L6_IGKJ1*01 (Fab, V domains shown)
VH: QVQLVQSGAEVKKPGASVKVSCKASGYTFTSYYMHWVRQAPGQGLEWMGIINPSGGSTAYAQKFQGRVTMTRDTSTSTVYMELSSLRSEDTAVYYCAREEYAPFSAEYFQFWGQGTLVTVSS
VL: not shown
notes: Tested as a Fab made in E. coli; also called APFF S59A
ECL signal [3]: 339
ECL signal [4]: 346
ECL signal [5]: 273
ECL signal [6]: 280
ECL signal [7]: 312
ECL signal [8]: 358
ECL signal [9]: 382
ECL signal [10]: 333
ECL signal [11]: 4500

B3: Fab VH1-46_IGHD6-6*01_IGHJ1*01 S102A/S103P/S104F/H111F (APFF) & L6_IGKJ1*01 (Fab, V domains shown)
VH: QVQLVQSGAEVKKPGASVKVSCKASGYTFTSYYMHWVRQAPGQGLEWMGIINPSGGSTSYAQKFQGRVTMTRDTSTSTVYMELSSLRSEDTAVYYCAREEYAPFSAEYFQFWGQGTLVTVSS
VL: not shown
notes: Tested as Fab expressed in E. coli: heavy chain from plasmid A (CH1 with His6 and Flag tags), kappa light chain from plasmid C (CL kappa); also called H:APFF & L:wt
ECL signal [12]: 79300
ECL signal [13]: 453
ECL signal [14]: 485
ECL signal [15]: 380
ECL signal [16]: 503
ELISA (Signal-Noise) [17]: 0.78
ECL signal [18]: 7540
ECL signal [19]: 201
ECL signal [20]: 184
ECL signal [21]: 215
ECL signal [22]: 222
ECL signal [23]: 27200
ECL signal [24]: 785
ECL signal [25]: 736
ECL signal [26]: 723
ECL signal [27]: 712
ECL signal [28]: 75800
ECL signal [29]: 280
ECL signal [30]: 323
ECL signal [31]: 258
ECL signal [32]: 286
ECL Signal/Noise [33]: 202
